Source: PMC5424160, “Menin enhances c-Myc-mediated transcription to promote cancer progression” (Nature Communications, 2017)

Biological target: T1, GST-CycT1 (UniProt O60563 1-726)
T1 construct: Cyclin T1, cDNA cloned into pGEX-4T-1; also called GST fused CycT1 protein; source: Escherichia coli (DE3), purified
Assay: pull-down; GST pull-down: purified GST fused protein as bait and purified His-tag protein; pull-down buffer 150 mM NaCl, 50 mM Tris pH 7.5, 0.1% NP-40, 5 mM DTT; western blot
Conditions: both partners purified

T1 sequence (O60563 whole entry, the tested form may be a part): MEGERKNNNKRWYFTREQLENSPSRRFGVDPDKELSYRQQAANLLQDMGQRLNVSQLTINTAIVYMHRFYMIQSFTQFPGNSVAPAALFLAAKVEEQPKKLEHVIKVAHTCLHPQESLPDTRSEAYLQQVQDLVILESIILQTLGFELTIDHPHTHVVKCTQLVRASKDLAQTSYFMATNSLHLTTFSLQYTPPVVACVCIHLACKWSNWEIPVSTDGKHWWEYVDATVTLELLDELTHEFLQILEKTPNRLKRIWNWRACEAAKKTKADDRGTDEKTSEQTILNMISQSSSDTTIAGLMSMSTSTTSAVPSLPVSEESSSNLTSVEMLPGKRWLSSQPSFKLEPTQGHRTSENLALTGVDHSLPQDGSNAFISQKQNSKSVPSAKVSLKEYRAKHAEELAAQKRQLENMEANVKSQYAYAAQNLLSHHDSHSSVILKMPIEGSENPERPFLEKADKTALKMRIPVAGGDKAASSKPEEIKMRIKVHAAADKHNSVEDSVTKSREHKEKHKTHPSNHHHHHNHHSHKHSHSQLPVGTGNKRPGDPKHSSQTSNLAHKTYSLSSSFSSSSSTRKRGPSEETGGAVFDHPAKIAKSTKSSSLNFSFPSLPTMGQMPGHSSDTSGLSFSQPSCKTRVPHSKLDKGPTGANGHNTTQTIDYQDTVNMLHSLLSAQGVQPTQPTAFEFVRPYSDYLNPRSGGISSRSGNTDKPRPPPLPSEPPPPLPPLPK

B1: His-Menin (natural protein, UniProt O00255 1-610, looked up)
chain: MGLKAAQKTLFPLRSIDDVVRLFAAELGREEPDLVLLSLVLGFVEHFLAVNRVIPTNVPELTFQPSPAPDPPGGLTYFPVADLSIIAALYARFTAQIRGAVDLSLYPREGGVSSRELVKKVSDVIWNSLSRSYFKDRAHIQSLFSFITGTKLDSSGVAFAVVGACQALGLRDVHLALSEDHAWVVFGPNGEQTAEVTWHGKGNEDRRGQTVNAGVAERSWLYLKGSYMRCDRKMEVAFMVCAINPSIDLHTDSLELLQLQQKLLWLLYDLGHLERYPMALGNLADLEELEPTPGRPDPLTLYHKGIASAKTYYRDEHIYPYMYLAGYHCRNRNVREALQAWADTATVIQDYNYCREDEEIYKEFFEVANDVIPNLLKEAASLLEAGEERPGEQSQGTQSQGSALQDPECFAHLLRFYDGICKWEEGSPTPVLHVGWATFLVQSLGRFEGQVRQKVRIVSREAEAAEAEEPWGEEAREGRRRGPRRESKPEEPPPPKKPALDKGLGTGQGAVSGPPRKPPGTVAGTARGPEGGSTAQVPAPTASPPPEGPVLTFQSEKMKGMKELLVATKINSSAIKLQLTAQSQVQMKKQKVSTPSDYTLSFLKRQRKGL
notes: Menin, MEN1 cDNA cloned into pET-22b (+); also called His-tagged Menin protein; recombinant His-Menin protein; source: Escherichia coli (DE3), purified
**Q.** Does B1 bind?
**A.** Result: binds
